The target in the assay is focal adhesion kinase (FAK) (human (endogenous in HeLa), UniProt Q05397 1-1052). Description: cell-based or functional assay.
focal adhesion kinase (FAK), sequence (Q05397 whole entry): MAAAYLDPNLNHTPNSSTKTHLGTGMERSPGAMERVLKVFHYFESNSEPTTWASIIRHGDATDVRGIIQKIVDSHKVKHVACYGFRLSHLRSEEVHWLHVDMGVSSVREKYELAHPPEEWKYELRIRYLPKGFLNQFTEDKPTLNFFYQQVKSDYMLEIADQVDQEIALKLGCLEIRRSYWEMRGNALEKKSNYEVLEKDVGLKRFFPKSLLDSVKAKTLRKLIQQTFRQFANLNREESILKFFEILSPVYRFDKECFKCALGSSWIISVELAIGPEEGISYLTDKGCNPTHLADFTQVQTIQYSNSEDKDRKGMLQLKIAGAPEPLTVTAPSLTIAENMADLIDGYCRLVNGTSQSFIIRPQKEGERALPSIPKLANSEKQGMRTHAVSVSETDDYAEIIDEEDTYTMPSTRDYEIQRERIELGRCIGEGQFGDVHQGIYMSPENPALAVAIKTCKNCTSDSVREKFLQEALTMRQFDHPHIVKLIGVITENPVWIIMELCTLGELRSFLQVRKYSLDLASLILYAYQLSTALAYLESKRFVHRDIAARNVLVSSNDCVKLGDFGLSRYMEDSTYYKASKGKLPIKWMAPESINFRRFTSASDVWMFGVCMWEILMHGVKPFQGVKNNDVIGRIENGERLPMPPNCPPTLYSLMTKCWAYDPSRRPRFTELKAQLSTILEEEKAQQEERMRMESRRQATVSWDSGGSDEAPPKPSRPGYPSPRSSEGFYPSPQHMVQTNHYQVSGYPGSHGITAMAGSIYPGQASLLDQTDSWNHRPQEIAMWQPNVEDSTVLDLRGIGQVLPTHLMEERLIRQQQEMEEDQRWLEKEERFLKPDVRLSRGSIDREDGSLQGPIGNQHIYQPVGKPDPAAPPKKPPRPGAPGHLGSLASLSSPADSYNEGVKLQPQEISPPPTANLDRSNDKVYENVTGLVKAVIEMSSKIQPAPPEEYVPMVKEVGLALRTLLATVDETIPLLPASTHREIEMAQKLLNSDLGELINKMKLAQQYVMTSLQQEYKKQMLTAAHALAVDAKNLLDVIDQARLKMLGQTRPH

B1: Cya18-Pax-LD2 (domain or fragment, UniProt P49024 125-186, looked up)
chain: KSAEPSPTMTSTSLGSNLSELDRLLLELNAVQHNPPSGFSADEVSRSPSLPNVTGPHYVIPE
Consider B1, for which the “colocalisation of endogenous pY397-FAK with adhered Δtir EPEC in Cos7 cells expressing TirM-Pax-LD2, increase relative to the TirM-only negative control” value worked out at 2.4 fold.

The record behind these values is PMC4215226, “The Chlamydia Effector TarP Mimics the Mammalian Leucine-Aspartic Acid Motif of Paxillin to Subvert the Focal Adhesion Kinase during Invasion*” (The Journal of Biological Chemistry, 2014).
